The record followed here is patent US20150087552A1.

For test [1], the target named is Kv2.1 "wild-type" base construct hKv2.1-m7-c3 (human Kv2.1, residues 1-858, mutated to confer AgTx2 (human) (UniProt Q14721)). The test is described as follows: cell-based or functional assay.
Test [2] addresses Kv2.1 R300S (on the hKv2.1-m7-c3 base construct) (human) (UniProt Q14721). The test is described as follows: cell-based or functional assay.

Sequence of AgTx2 (Agitotoxin-2 / agitoxin 2, scorpion toxin) (P46111 whole entry): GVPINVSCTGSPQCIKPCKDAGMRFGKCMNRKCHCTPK

“AgTx2 (Agitotoxin-2 / agitoxin 2, scorpion toxin) (from UniProt P46111 1-38) (peptide)”: the mean inhibition of the maximal outward (alpha pore) current at +60 mV by 1 nM AgTx2, two-electrode voltage clamp, Xenopus oocytes in test [1] came out at 66.5%; in test [2], 67.8%.
